The chains are these.
B2: full length TNF-gamma-beta expressed on the cell surface (HEK293F stable transfectants; cells transfected with TNF-gamma-β) (ligand)
chain: MAEDLGLSFGETASVEMLPEHGSCRPKARSSSARWALTCCLVLLPFLAGLTTYLLVSQLRAQGEACVQFQALKGQEFAPSHQQVYAPLRADGDKPRAHLTVVRQTPTQHFKNQFPALHWEHELGLAFTKNRMNYTNKFLLIPESGDYFIYSQVTFRGMTSECSEIRQAGRPNKPDSITVVITKVTDSYPEPTQLLMGTKSVCEVGSNWFQPIYLGAMFSLQEGDKLMVNVSDISLVDYTKEDKTFFGAFLL
notes: also called TNF-gamma-beta expressing cells

Assay [1] concerns the target T1, FLAG-tagged soluble form of TNF-gamma-beta (aa 72-251) (human, UniProt O95150 72-251).
T1 construct: also called FLAG-TL1β; FLAG-TNF-gamma-beta; not shown: FLAG tag of the pFLAG-CMV-1 vector at the amino terminus
T1 sequence: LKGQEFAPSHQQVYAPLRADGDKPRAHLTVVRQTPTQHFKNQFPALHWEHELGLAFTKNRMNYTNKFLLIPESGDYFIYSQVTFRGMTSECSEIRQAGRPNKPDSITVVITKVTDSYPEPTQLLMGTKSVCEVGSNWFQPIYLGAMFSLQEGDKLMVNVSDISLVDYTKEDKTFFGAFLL
Briefly: co-immunoprecipitation with protein A-Sepharose, anti-Flag blot. An excerpt:
The beads were then precipitated and washed extensively with PBST buffer (PBS, 0.5% Triton X-100) before boiled in SDS-sample buffer. Proteins were resolved on 4-20% Tris-Glycine gels (NOVEX), transferred to nitrocellulose membranes, and blotted with anti-Flag M2 monoclonal antibody (1 microgram/ml, Sigma) and horseradish peroxidase (HRP)-conjugated goat anti-mouse IgG antibody (0.5 microgram/ml).

The target of assay [2] is B2. Briefly: flow cytometry on HEK293F cells expressing full length TNF-gamma-beta. As to the method:
(§1) These cells were used to screen the Fc-fusion form of the extracellular domain of TNFR family members, including TNFR1, Fas, HveA, DR3, DR4, DR5, DR6, DcR1, DcR2, TR6, OPG, RANK, AITR, TAC1, CD40, and OX40. […] TR6 has been previously described as a decoy receptor (Pitti et al., Nature 396:699-703 (1998); Yu et al., J. Biol. Chem. 274:13733-6 (1999)) capable of competing with Fas and HveA for binding of FasL and LIGHT, respectively.
(§2) One million cells, in 0.1 ml of FACS buffer (PBS, 0.1% BSA, 0.1% NaN₃), were incubated with 0.1-1 microgram of protein or antibody at RT for 15 min. The cells were washed with 3 ml of FACS buffer, reacted with biotinylated primary antibody, and stained with PE-conjugated secondary antibody at RT for 15 min. Cells were then washed again, resuspended in 0.5 microgram/ml of propidium iodide, and live cells were gated and analyzed on a FACScan using the CellQuest software (BD Biosciences).
In general terms: In flow cytometry, cells or beads pass a laser one at a time.

Assay [3] addresses T2, TR6-Fc (full-length human TNFR-6 alpha, SEQ ID NO:6 aa 1-300, fused to the Fc domain of human IgG1) (human, UniProt O95407 30-300).
T2 construct: also called TNFR-6 alpha Fc fusion protein; DcR3-Fc; not shown: Fc domain of human IgG1
T2 sequence: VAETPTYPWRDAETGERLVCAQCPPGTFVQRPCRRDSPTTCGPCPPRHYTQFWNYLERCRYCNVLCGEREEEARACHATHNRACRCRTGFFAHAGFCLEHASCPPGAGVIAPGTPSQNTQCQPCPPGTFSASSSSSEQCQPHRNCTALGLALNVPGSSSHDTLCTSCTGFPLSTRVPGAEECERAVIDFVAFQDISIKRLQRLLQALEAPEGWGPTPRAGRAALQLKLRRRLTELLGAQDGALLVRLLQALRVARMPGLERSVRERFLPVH
Briefly: FACS on transfected cells.

Assay [4] concerns the target T3, DR6 (Fc-fusion form of the extracellular domain) (UniProt O75509 42-349, limits assumed).
T3 construct: extracellular domain; not shown: Fc part
T3 sequence (looked up): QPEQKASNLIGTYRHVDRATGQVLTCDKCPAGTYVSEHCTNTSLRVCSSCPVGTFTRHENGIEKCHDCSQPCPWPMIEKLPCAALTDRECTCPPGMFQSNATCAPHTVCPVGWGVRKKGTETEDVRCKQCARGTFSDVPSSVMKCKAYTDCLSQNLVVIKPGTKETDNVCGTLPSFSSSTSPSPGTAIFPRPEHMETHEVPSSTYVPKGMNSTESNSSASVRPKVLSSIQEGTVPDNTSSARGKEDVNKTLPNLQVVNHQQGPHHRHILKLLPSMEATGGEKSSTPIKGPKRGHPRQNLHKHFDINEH
As to the kind of experiment: flow cytometry on HEK293F cells expressing full length TNF-gamma-beta. As to the method:
as §1, §2

Assay [5] has as its target T4, TNF-gamma-β polypeptide (amino acid residues 72-251 of SEQ ID NO:2), untagged recombinant protein (human, UniProt O95150 72-251).
T4 construct: also called TL1β
T4 sequence: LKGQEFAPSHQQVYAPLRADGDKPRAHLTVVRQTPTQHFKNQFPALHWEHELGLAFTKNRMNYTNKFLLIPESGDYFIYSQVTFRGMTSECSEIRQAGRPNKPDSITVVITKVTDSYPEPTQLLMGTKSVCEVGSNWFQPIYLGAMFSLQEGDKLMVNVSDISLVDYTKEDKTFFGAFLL
As to the kind of experiment: BIAcore, control receptor surface. As to the method:
(§3) TNFR-Fc were covalently immobilized to the BIAcore sensor chip (CM5 chip) via amine groups using N-ethyl-N′-(dimethylaminopropyl) carbodiimide/N-hydroxysuccinimide chemistry. […] The amount of bound protein was determined during washing of the flow cell with HBS buffer (10 mM HEPES, pH 7.4, 150 mM NaCl, 3.4 mM EDTA, 0.005% Surfactant P20). The flow cell surface was regenerated by displacing bound protein by washing with 20 microliters of 10 mM glycine-HCl, pH 2.3. For kinetic analysis, the on and off rates were determined using the kinetic evaluation program in BIAevaluation 3 software using a 1:1 binding model and the global analysis method.
For orientation: SPR reads the build-up and loss of mass on a sensor chip optically.

Assay [6] concerns the target T4, TNF-gamma-β polypeptide (amino acid …). As to the kind of experiment: BIAcore, DR3-Fc immobilised, three batches of TNF-gamma-beta; DR3-Fc. Here is the method: as §3
Assay [7] has the same target. Briefly: BIAcore, DR3-Fc immobilised, average of three batches; DR3-Fc, average of three batches. As to the method: as §3

B1: TACI-Fc (extracellular domain of human TACI, aa 1-159, fused to the Fc domain of human IgG1) (Fc fusion, UniProt O14836 1-159, looked up)
chain: MSGLGRSRRGGRSRVDQEERFPQGLWTGVAMRSCPEEQYWDPLLGTCMSCKTICNHQSQRTCAAFCRSLSCRKEQGKFYDHLLRDCISCASICGQHPKQCAYFCENKLRSPVNLPPELRRQRSGEVENNSDNSGRYQGLEHRGSEASPALPGLKLSADQ
notes: range 1-159; also called TAC1 (Fc-fusion); not shown: Fc domain of human IgG1
Consider B1, for which the binding result in assay [1] and in assay [2] was “no binding” throughout.
Turning to B2, the binding result in assay [3] is given as “binds”; in assay [4], “no binding”.

B3: BCMA-Fc (Fc fusion, human, UniProt Q02223 1-54, looked up)
chain: MLQMAGQCSQNEYFDSLLHACIPCQLRCSSNTPPLTCQRYCNASVTNSVKGTNA
notes: not shown: Fc part
Consider B3, for which, in assay [5], the binding result is on record as “no binding (tested: 370 nM (top of the range 3-370 nM))”.

B4: DR3-Fc (extracellular domain of human DR3, aa 1-199, fused at its C-terminus to the Fc domain of human IgG1) (Fc fusion)
chain: QGGTRSPRCDCAGDFHKKIGLFCCRGCPAGHYLKAPCTEPCGNSTCLVCPQDTFLAWENHHNSECARCQACDEQASQVALENCSAVADTRCGCKPGWFVECQVSQCVSSSPFYCQPCLDCGALHRHTRLLCSRRDTDCGTCLPGFYEHGDGCVSCPTSTLGSCPERCAAVCGWRQ
notes: not shown: Fc domain of human IgG1
As usually defined, the koff is the rate constant with which the complex falls apart. By kon is commonly meant the second-order rate constant of association. The Kd is the equilibrium constant for the complex coming apart. Regarding B4, in assay [6], the koff worked out at 0.00413 s⁻¹ and the kon stood at 639000 M⁻¹ s⁻¹. In addition, in assay [7], the Kd was 6.45 nM.

Source of the values: patent publication US20030198640A1 (Human Genome Sciences, published 2003).
